A word on the Kd: it is the free concentration of one partner at which half of the binding sites on the other are occupied at equilibrium, for simple one-to-one binding. Low readings indicate higher affinity, high ones lower affinity.

Substitutions are numbered along the chain they refer to.

The source of these data is patent US20250059282A1 (University of Texas, published 2025).

Test [1] deals with T1, Human PD-L1-HIS (human, UniProt Q9NZQ7 19-238).
T1 construct: also called HIS-tagged monovalent PD-L1; His-tagged human PD-L1; not shown: His tag
Description: ForteBio, IgG, monovalent. For orientation: Biolayer interferometry detects binding as a change in optical thickness at a sensor tip.

The target in test [2] is T2, Human PD-L2-HIS (human, UniProt Q9BQ51 20-220).
T2 construct: also called His-tagged human PD-L2; not shown: His tag
T2 sequence: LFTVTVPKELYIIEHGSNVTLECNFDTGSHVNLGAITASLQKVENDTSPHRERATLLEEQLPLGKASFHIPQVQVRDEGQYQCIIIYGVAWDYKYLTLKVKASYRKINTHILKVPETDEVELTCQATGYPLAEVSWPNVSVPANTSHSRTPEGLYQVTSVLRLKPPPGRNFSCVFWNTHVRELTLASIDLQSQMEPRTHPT
Description: ForteBio, IgG, monovalent.

The target of test [3] is T3, human PD-L1 on CHO cells (human, UniProt Q9NZQ7 19-290). Description: cell-based or functional assay.
The target in test [4] is T4, human PD-L2 on CHO cells (human, UniProt Q9BQ51 20-273).
T4 sequence: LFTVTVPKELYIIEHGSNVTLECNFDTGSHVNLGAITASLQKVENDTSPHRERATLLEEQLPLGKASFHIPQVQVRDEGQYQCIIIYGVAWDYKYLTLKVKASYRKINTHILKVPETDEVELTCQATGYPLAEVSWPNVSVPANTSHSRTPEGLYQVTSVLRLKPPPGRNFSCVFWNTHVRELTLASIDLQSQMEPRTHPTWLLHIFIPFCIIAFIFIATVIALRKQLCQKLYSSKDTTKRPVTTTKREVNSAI
Description: cell-based or functional assay.

Test [5] deals with T5, Mouse PD-L1-Fc (mouse, UniProt Q9EP73 19-239, limits assumed).
T5 construct: also called murine PD-L1; not shown: Fc
Description: ForteBio, IgG, avid.

Test [6] deals with T6, Cyno PD-L1-Fc (cynomolgus, UniProt G7PSE7 19-238).
T6 construct: also called cynomolgus PD-L1
Description: ForteBio, IgG, avid.

The target of test [7] is T7, Mouse PD-L2-Fc (mouse, UniProt Q9WUL5 20-219, limits assumed).
T7 construct: also called murine PD-L2; not shown: Fc
T7 sequence (looked up): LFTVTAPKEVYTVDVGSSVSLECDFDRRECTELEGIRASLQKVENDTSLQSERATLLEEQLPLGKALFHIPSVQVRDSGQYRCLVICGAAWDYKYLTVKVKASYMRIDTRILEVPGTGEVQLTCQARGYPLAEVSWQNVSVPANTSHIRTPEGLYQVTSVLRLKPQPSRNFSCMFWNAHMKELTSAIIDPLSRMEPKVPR
Description: ForteBio, IgG, avid.

Test [8] has as its target T8, Cyno PD-L2-Fc (cynomolgus, UniProt A0A2K5U5Z4 20-220).
T8 construct: also called cynomolgus PD-L2; not shown: Fc
T8 sequence: T2 sequence with V19A, P62S, S67L, V139I, P166H, T178A, H179Q, M194I
Description: ForteBio, IgG, avid.

In test [9] the target is T5, Mouse PD-L1-Fc. Description: ForteBio Octet, IgG, avid.
For test [10], the target named is T6, Cyno PD-L1-Fc. Description: ForteBio Octet, IgG, avid.
The target of test [11] is T7, Mouse PD-L2-Fc. Description: ForteBio Octet, IgG, avid.
In test [12] the target is T8, Cyno PD-L2-Fc. Description: ForteBio Octet, IgG, avid.
The target of the next test is T9, Human PD-L1-Fc (human, UniProt Q9NZQ7 19-238).
T9 construct: also called dimeric PD-L1; PD-L1 (dimeric ligand); not shown: human IgG1 Fc constant region
Description: ForteBio Octet, IgG, avid.

Another test addresses T10, Human PD-L2-Fc (human, UniProt Q9BQ51 20-220).
T10 construct: also called dimeric PD-L2; PD-L2 (dimeric ligand); not shown: human IgG1 Fc constant region
T10 sequence: T2 sequence
Description: ForteBio Octet, IgG, avid.

For test [13], the target named is T5, Mouse PD-L1-Fc. Description: ForteBio, IgG, avid. This is another data set of the same source.
Test [14] deals with T6, Cyno PD-L1-Fc. Description: ForteBio, IgG, avid. The source holds these as a separate data set.
Test [15] has as its target T7, Mouse PD-L2-Fc. Description: ForteBio, IgG, avid. The source holds these as a separate data set.
Test [16] addresses T8, Cyno PD-L2-Fc. Description: ForteBio, IgG, avid. This is another data set of the same source.
Test [17] has as its target T1, Human PD-L1-HIS. Description: ForteBio Octet, IgG; column head says Avid.
Test [18] addresses T2, Human PD-L2-HIS. Description: ForteBio Octet, IgG, monovalent.
Test [19] addresses T1, Human PD-L1-HIS. Description: ForteBio, IgG, monovalent. The source holds these as a separate data set.
Test [20] addresses T2, Human PD-L2-HIS. Description: ForteBio, IgG, monovalent. The source holds these as a separate data set.
The target of test [21] is T3, human PD-L1 on CHO cells. Description: cell-based or functional assay. This is another data set of the same source.
Test [22] deals with T4, human PD-L2 on CHO cells. Description: cell-based or functional assay. The source holds these as a separate data set.
Test [23] has as its target T1, Human PD-L1-HIS. Description: ForteBio Octet, IgG; column head says Avid; IgG against Human PD-L1-HIS (head says Avid), not Fab against PD-L1-Fc.

T1 sequence (Q9NZQ7 19-238 limits assumed): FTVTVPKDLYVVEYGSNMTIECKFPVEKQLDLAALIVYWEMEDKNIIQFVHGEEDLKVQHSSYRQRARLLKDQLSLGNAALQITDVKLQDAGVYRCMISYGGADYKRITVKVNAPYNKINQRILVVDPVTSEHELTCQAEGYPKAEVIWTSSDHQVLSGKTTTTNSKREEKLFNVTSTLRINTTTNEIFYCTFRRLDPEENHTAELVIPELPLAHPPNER
T5 sequence (Q9EP73 19-239 limits assumed): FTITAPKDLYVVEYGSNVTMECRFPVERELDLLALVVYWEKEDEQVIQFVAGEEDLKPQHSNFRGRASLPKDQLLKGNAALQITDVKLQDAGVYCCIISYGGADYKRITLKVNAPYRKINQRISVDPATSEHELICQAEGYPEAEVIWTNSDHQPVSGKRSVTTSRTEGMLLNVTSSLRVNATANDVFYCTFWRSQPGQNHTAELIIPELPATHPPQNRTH
T6 sequence (G7PSE7 entry or part of it limits assumed): as the sequence (Q9NZQ7 19-238 limits assumed) above, with A33T, A34S, S62N, R68Q, Q82R, F173L, T185A, T192I, H215L counted along it
T3 sequence (Q9NZQ7 19-290 limits assumed): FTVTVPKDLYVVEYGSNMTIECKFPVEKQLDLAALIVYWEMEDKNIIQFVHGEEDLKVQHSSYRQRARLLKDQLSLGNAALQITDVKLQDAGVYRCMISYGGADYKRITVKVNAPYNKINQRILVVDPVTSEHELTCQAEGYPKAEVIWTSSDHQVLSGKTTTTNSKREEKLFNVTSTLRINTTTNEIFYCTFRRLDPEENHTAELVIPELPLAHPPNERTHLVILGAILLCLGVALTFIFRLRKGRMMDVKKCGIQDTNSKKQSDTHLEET
T9 sequence (Q9NZQ7 19-238 limits assumed): as the sequence (Q9NZQ7 19-238 limits assumed) above

B1: BiPDL3-14 (antibody, V domains shown)
VH: QVQLQQWGAGLLKPSETLSLTCAVYGGSLSGYPWSWIRQPPGKGLEWIGETDVSGWTDYNPSLKSRVTISVDTSKNQFSLKLSSVTAADTAVYYCARDGRRMGTPSFDIWGQGTMVTVSS
VL: DIQMTQSPSSVSASVGDRVTITCRASQGINSFLAWYQQKPGKAPKLLIYAASSLNSGVPSRFSGSGSGTDFTLTISSLQPEDFATYYCQKAVYFPPTFGGGTKVEIK
notes: IgG; also called ADI-37464; 37464
As for B1, the Kd was determined as 3.93 nM in the test with Human PD-L1-HIS [1]; 0.684 nM in the test with Human PD-L2-HIS [2]; 2.34 nM with Mouse PD-L1-Fc [5]; 0.371 nM in the test with Cyno PD-L1-Fc [6]; 0.533 nM with Mouse PD-L2-Fc [7]; 0.543 nM with Cyno PD-L2-Fc [8]. The “EC50 (read off the curve); Luc Activity, Promega CHO-PDL1/PD-L2 dual cells with NFAT-Luc Jurkat T cells (PD-L1 and PD-L2 not separable)” value with human PD-L1 on CHO cells [3] and in the test with human PD-L2 on CHO cells [4] was about 2 nM each time.

B2: BiPDL3-13 (antibody, V domains shown)
VH: B1 VH
VL: B1 VL with M4L, N30S, F32W, N55Q, K90Q, A91Y
notes: Third generation, IgG
Regarding B2, in the test with Mouse PD-L1-Fc [9], the binding result is on record as “no binding (tested: 100 nM antigen)”. Besides, the Kd came to 2.34 nM in the test with Cyno PD-L1-Fc [10]; 1.22 nM with Mouse PD-L2-Fc [11]; 0.688 nM with Cyno PD-L2-Fc [12]; 3.28 nM with Human PD-L1-Fc; 0.431 nM with Human PD-L2-Fc.

B3: BiPDL4-34 (antibody, V domains shown)
VH: QVQLVESGGGVIQPGRSLRLSCAASGFTFSAYLMHWVRQAPGKGLEWVAAIGYDGMNKYYADSVKGRFTISRDNSKNTLYLQMNSLRAEDTAVYYCARAGIEYSYAYTDYWGQGTLVTVSS
VL: EIVLTQSPGTLSLSPGERATLSCRASQFVYSSDLAWYQQKPGQAPRLLIYGASARAAGIPDRFSGSGSGTDFTLTISRLEPEDFAVYYCMQFGWWPPRTFGGGTKVEIK
notes: Fourth generation, IgG
For B3, the dissociation constant (Kd) with Mouse PD-L1-Fc [13] was determined as 0.544 nM; with Cyno PD-L1-Fc [14], 0.408 nM; in the test with Mouse PD-L2-Fc [15] it was 5.69 nM; with Cyno PD-L2-Fc [16], 0.739 nM; in the test with Mouse PD-L1-Fc [9] it was 0.544 nM; in the test with Cyno PD-L1-Fc [10], 0.408 nM. In addition, the dissociation constant Kd was 5.69 nM with Mouse PD-L2-Fc [11]; 0.739 nM with Cyno PD-L2-Fc [12]; 2.17 nM in the test with Human PD-L1-HIS [17]; 0.932 nM in the test with Human PD-L2-HIS [18]; 6.85 nM with Human PD-L1-HIS [19]; 0.932 nM with Human PD-L2-HIS [20].

B4: BiPDL4-14 (antibody, V domains shown)
VH: B3 VH with I12V, S30D, A31E, L33G, A50V, M56L
VL: B3 VL with A54T, A56K, A57T, M90L
notes: Fourth generation, IgG
On to B4, for which the Kd with Mouse PD-L1-Fc [13] was 0.4 nM; with Cyno PD-L1-Fc [14], 0.508 nM; with Mouse PD-L2-Fc [15], 7.88 nM; with Cyno PD-L2-Fc [16], 0.64 nM; with Mouse PD-L1-Fc [9], 0.4 nM; in the test with Cyno PD-L1-Fc [10] it was 0.508 nM. Further, the equilibrium dissociation constant (Kd) was 7.88 nM with Mouse PD-L2-Fc [11]; 0.64 nM with Cyno PD-L2-Fc [12]; 0.692 nM with Human PD-L1-HIS [23]; 0.738 nM in the test with Human PD-L2-HIS [18]; 2.26 nM in the test with Human PD-L1-HIS [19]; 0.738 nM with Human PD-L2-HIS [20]. The “EC50 (read off the curve); Fold induction of luciferase, Promega: CHO-PD-L1/PD-L2 dual cells with PD-1 Jurkat reporter cells (PD-L1 and PD-L2 not separable)” value with human PD-L1 on CHO cells [21] and in the test with human PD-L2 on CHO cells [22] was about 0.3 nM throughout.
